In IntAct's records for PubMed 31515488:

B1: Notch homolog 2 N-terminal-like protein A (Homo sapiens), Q7Z3S9 (parent)
chain: MCVTYHNGTGYCKCPEGFLGEYCQHRDPCEKNRCQNGGTCVAQAMLGKATCRCASGFTGEDCQYSTSHPCFVSRPCLNGGTCHMLSRDTYECTCQVGFTGKECQWTDACLSHPCANGSTCTTVANQFSCKCLTGFTGQKCETDVNECDIPGHCQHGGTCLNLPGSYQCQCLQGFTGQYCDSLYVPCAPSPCVNGGTCRQTGDFTFECNCLPETVRRGTELWERDREVWNGKEHDEN
partner: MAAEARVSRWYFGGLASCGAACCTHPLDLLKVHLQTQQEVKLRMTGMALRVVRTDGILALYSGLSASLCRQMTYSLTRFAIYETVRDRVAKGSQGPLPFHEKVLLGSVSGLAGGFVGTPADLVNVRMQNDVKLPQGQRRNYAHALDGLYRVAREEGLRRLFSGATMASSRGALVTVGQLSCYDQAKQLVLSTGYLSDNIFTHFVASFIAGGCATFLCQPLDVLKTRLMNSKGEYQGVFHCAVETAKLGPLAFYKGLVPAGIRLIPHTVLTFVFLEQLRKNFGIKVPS
B2: Cytohesin-4 (Homo sapiens), Q9UIA0 (parent)
chain: MDLCHPEPAELSSGETEELQRIKWHRKQLLEDIQKLKDEIADVFAQIDCFESAEESRMAQKEKELCIGRKKFNMDPAKGIQYFIEHKLLTPDVQDIARFLYKGEGLNKTAIGTYLGERDPINLQVLQAFVDCHEFANLNLVQALRQFLWSFRLPGEAQKIDRMMEAFATRYCLCNPGVFQSTDTCYVLSFSIIMLNTSLHNPNVRDRPPFERFVSMNRGINNGSDLPEDQLRNLFDSIKSEPFSIPEDDGNDLTHTFFNPDREGWLLKLGGRVKTWKRRWFILTDNCLYYFEFTTDKEPRGIIPLENLSVQKVDDPKKPFCLELYNPSCRGQKIKACKTDGDGRVVEGKHESYRISATSAEERDQWIESIRASITRVPFYDLVSTRKKKIASKQ
partner: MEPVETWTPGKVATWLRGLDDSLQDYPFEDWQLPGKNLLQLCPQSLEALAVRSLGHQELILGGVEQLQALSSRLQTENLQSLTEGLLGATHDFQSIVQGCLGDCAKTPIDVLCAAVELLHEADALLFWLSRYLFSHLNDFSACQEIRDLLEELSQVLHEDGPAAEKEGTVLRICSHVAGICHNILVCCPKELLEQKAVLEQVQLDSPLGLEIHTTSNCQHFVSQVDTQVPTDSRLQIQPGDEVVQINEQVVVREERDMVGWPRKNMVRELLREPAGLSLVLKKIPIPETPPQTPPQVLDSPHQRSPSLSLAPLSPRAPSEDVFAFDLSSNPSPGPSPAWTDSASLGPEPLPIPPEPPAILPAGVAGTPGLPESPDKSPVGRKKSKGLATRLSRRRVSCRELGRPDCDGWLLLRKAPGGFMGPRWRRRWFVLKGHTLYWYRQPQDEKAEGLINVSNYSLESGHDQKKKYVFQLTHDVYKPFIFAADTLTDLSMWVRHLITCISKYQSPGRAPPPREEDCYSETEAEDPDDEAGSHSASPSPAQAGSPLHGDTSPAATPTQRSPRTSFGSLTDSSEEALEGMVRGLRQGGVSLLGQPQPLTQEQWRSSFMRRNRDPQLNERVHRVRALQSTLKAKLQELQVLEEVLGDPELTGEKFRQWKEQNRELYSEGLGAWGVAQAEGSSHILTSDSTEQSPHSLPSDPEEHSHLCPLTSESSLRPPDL
B3: Uridine diphosphate glucose pyrophosphatase NUDT22 (Homo sapiens), Q9BRQ3 (parent)
chain: MDPEVTLLLQCPGGGLPQEQIQAELSPAHDRRPLPGGDEAITAIWETRLKAQPWLFDAPKFRLHSATLAPIGSRGPQLLLRLGLTSYRDFLGTNWSSSAAWLRQQGATDWGDTQAYLADPLGVGAALATADDFLVFLRRSRQVAEAPGLVDVPGGHPEPQALCPGGSPQHQDLAGQLVVHELFSSVLQEICDEVNLPLLTLSQPLLLGIARNETSAGRASAEFYVQCSLTSEQVRKHYLSGGPEAHESTGIFFVETQNVQRLLETEMWAELCPSAKGAIILYNRVQGSPTGAALGSPALLPPL
partner: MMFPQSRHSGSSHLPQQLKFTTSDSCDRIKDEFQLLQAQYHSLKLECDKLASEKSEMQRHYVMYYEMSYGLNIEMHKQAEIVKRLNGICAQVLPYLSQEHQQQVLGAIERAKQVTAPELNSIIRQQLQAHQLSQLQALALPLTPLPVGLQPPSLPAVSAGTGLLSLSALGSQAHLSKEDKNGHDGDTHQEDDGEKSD
B4: Putative pre-mRNA-splicing factor ATP-dependent RNA helicase DHX32 (Homo sapiens), Q7L7V1 (parent)
chain: MEEEGLECPNSSSEKRYFPESLDSSDGDEEEVLACEDLELNPFDGLPYSSRYYKLLKEREDLPIWKEKYSFMENLLQNQIVIVSGDAKCGKSAQVPQWCAEYCLSIHYQHGGVICTQVHKQTVVQLALRVADEMDVNIGHEVGYVIPFENCCTNETILRYCTDDMLQREMMSNPFLGSYGVIILDDIHERSIATDVLLGLLKDVLLARPELKLIINSSPHLISKLNSYYGNVPVIEVKNKHPVEVVYLSEAQKDSFESILRLIFEIHHSGEKGDIVVFLACEQDIEKVCETVYQGSNLNPDLGELVVVPLYPKEKCSLFKPLDETEKRCQVYQRRVVLTTSSGEFLIWSNSVRFVIDVGVERRKVYNPRIRANSLVMQPISQSQAEIRKQILGSSSSGKFFCLYTEEFASKDMTPLKPAEMQEANLTSMVLFMKRIDIAGLGHCDFMNRPAPESLMQALEDLDYLAALDNDGNLSEFGIIMSEFPLDPQLSKSILASCEFDCVDEVLTIAAMVTAPNCFSHVPHGAEEAALTCWKTFLHPEGDHFTLISIYKAYQDTTLNSSSEYCVEKWCRDYFLNCSALRMADVIRAELLEIIKRIELPYAEPAFGSKENTLNIKKALLSGYFMQIARDVDGSGNYLMLTHKQVAQLHPLSGYSITKKMPEWVLFHKFSISENNYIRITSEISPELFMQLVPQYYFSNLPPSESKDILQQVVDHLSPVSTMNKEQQMCETCPETEQRCTLQ
partner: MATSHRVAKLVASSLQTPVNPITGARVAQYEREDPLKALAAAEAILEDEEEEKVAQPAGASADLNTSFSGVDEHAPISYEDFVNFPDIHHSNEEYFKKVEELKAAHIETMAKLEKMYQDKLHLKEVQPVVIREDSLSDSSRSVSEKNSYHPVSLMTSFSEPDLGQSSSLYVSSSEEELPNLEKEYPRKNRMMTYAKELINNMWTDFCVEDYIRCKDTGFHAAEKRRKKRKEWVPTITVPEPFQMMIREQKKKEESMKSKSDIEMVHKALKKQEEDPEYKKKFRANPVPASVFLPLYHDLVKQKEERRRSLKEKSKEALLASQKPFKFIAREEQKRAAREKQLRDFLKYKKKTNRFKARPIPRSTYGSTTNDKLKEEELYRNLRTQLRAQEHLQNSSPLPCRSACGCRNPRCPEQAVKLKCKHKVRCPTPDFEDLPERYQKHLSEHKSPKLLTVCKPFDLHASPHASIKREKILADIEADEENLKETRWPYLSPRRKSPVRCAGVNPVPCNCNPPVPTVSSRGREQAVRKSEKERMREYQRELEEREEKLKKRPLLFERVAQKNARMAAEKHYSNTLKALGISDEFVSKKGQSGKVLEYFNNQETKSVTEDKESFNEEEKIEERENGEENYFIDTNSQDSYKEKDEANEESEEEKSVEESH

Variants of: B1
Settings: with dic_human SLC25A10, Q9UBX3

Q: With R74Q as the variant, how does the “effect of a mutation on the interaction” value read?
A: The value was “with no effect”.

Q: How did the “effect of a mutation on the interaction” value turn out when A115T was run?
A: Its value is “with no effect”.

Variants of: B2
Settings: with cnkr1_human CNKSR1, Q969H4

Q: Which “effect of a mutation on the interaction” value does the source give for A9T here?
A: Its value is “with no effect”.

Q: Which “effect of a mutation on the interaction” value does the source give for M74V here?
A: The value was “with no effect”.

Variants of: B3
Settings: with tle5_human TLE5, Q08117

Q: For G36C, which “effect of a mutation on the interaction” value is on record?
A: The value was “with no effect”.

Variants of: B4
Settings: with FAM161A

Q: For D301A, which “effect of a mutation on the interaction” value is on record?
A: The value was “with no effect”.
